# From patent US20160367623A1, “AGONISTS OF GUANYLATE CYCLASE USEFUL FOR THE TREATMENT OF GASTROINTESTINAL DISORDERS, INFLAMMATION, CANCER AND OTHER DISORDERS” (priority 2015, published 2016)
# Bridge positions count the residues as written; N and C are the ends. Ends that are not written are not given here.
# System: patients with chronic idiopathic constipation (CIC)
# Assay: Second phase 3 CIC trial: treatment emergent adverse events, safety
substance,measurement,setting,value
"Asn^1-Asp^2-Glu^3-Cys^4-Glu^5-Leu^6-Cys^7-Val^8-Asn^9-Val^10-Ala^11-Cys^12-Thr^13-Gly^14-Cys^15-Leu^16 (NDECELCVNVACTGCL; disulfide 4-12, 7-15) [Plecanatide]","Infections and infestations, Severe: patients N",3 mg,0
same,Infections and infestations: events E,3 mg,38
same,Infections and infestations: patients %,3 mg,(7.3) %
same,Infections and infestations: patients N,3 mg,34
same,"Influenza, Mild: events E",3 mg,2
same,"Influenza, Mild: patients %",3 mg,(0.4) %
same,"Influenza, Mild: patients N",3 mg,2
same,"Influenza, Moderate: events E",3 mg,0
same,"Influenza, Moderate: patients N",3 mg,0
same,"Influenza, Severe: events E",3 mg,0
same,"Influenza, Severe: patients N",3 mg,0
same,Influenza: events E,3 mg,2
same,Influenza: patients %,3 mg,(0.4) %
same,Influenza: patients N,3 mg,2
same,"Injury, poisoning and procedural complications, Mild: events E",3 mg,6
same,"Injury, poisoning and procedural complications, Mild: patients %",3 mg,(0.9) %
same,"Injury, poisoning and procedural complications, Mild: patients N",3 mg,4
same,"Ligament sprain, Mild: events E",3 mg,1
same,"Ligament sprain, Mild: patients %",3 mg,(0.2) %
same,"Ligament sprain, Mild: patients N",3 mg,1
same,"Ligament sprain, Moderate: events E",3 mg,1
same,"Ligament sprain, Moderate: patients %",3 mg,(0.2) %
same,"Ligament sprain, Moderate: patients N",3 mg,1
same,"Ligament sprain, Severe: events E",3 mg,0
same,"Ligament sprain, Severe: patients N",3 mg,0
same,Ligament sprain: events E,3 mg,2
same,Ligament sprain: patients %,3 mg,(0.4) %
same,Ligament sprain: patients N,3 mg,2
same,"Skeletal injury, Mild: events E",3 mg,0
same,"Skeletal injury, Mild: patients N",3 mg,0
same,"Skeletal injury, Moderate: events E",3 mg,0
same,"Skeletal injury, Moderate: patients N",3 mg,0
same,"Skeletal injury, Severe: events E",3 mg,0
same,"Skeletal injury, Severe: patients N",3 mg,0
same,Skeletal injury: events E,3 mg,0
same,Skeletal injury: patients N,3 mg,0
same,Ileus: events (E),3 mg (N = 467),0
same,Infections and infestations (SOC): events E,3 mg (N = 467),38
same,Infections and infestations (SOC): patients %,3 mg (N = 467),(7.3) %
same,Infections and infestations (SOC): patients N,3 mg (N = 467),34
same,"Influenza like illness, Mild: events (E)",3 mg (N = 467),0
same,"Influenza like illness, Moderate: events (E)",3 mg (N = 467),0
same,"Influenza like illness, Severe: events (E)",3 mg (N = 467),0
same,Influenza like illness: events (E),3 mg (N = 467),0
same,Influenza like illness: events E,3 mg (N = 467),0
same,Influenza like illness: patients N,3 mg (N = 467),0
same,Influenza: events E,3 mg (N = 467),2
same,Influenza: patients %,3 mg (N = 467),(0.4) %
same,Influenza: patients N,3 mg (N = 467),2
same,"Injury, poisoning and procedural complications (SOC): events E",3 mg (N = 467),10
same,"Nausea, Mild: events (E)",3 mg (N = 467),4
same,"Nausea, Mild: patients (%)",3 mg (N = 467),(0.9) %
same,"Nausea, Moderate: events (E)",3 mg (N = 467),0
same,"SAE Musculoskeletal and connective tissue disorders, E events",3 mg (N = 467),0
same,"SAE Musculoskeletal and connective tissue disorders, N patients",3 mg (N = 467),0
same,"SAE Musculoskeletal and connective tissue disorders, No Reasonable Possibility, E events",3 mg (N = 467),0
same,"SAE Musculoskeletal and connective tissue disorders, No Reasonable Possibility, N patients",3 mg (N = 467),0
same,"SAE Musculoskeletal and connective tissue disorders, Reasonable Possibility, E events",3 mg (N = 467),0
same,"SAE Musculoskeletal and connective tissue disorders, Reasonable Possibility, N patients",3 mg (N = 467),0
same,"Infections and infestations, Severe: patients N",6 mg,1
same,Infections and infestations: events E,6 mg,51
same,Infections and infestations: patients %,6 mg,(9.2) %
same,Infections and infestations: patients N,6 mg,43
same,"Influenza, Mild: events E",6 mg,4
same,"Influenza, Mild: patients %",6 mg,(0.9) %
same,"Influenza, Mild: patients N",6 mg,4
same,"Influenza, Moderate: events E",6 mg,3
same,"Influenza, Moderate: patients %",6 mg,(0.6) %
same,"Influenza, Moderate: patients N",6 mg,3
same,"Influenza, Severe: events E",6 mg,0
same,"Influenza, Severe: patients N",6 mg,0
same,Influenza: events E,6 mg,7
same,Influenza: patients %,6 mg,(1.5) %
same,Influenza: patients N,6 mg,7
same,"Injury, poisoning and procedural complications, Mild: events E",6 mg,4
same,"Injury, poisoning and procedural complications, Mild: patients %",6 mg,(0.9) %
same,"Injury, poisoning and procedural complications, Mild: patients N",6 mg,4
same,"Ligament sprain, Mild: events E",6 mg,0
same,"Ligament sprain, Mild: patients N",6 mg,0
same,"Ligament sprain, Moderate: events E",6 mg,0
same,"Ligament sprain, Moderate: patients N",6 mg,0
same,"Ligament sprain, Severe: events E",6 mg,0
same,"Ligament sprain, Severe: patients N",6 mg,0
same,Ligament sprain: events E,6 mg,0
same,Ligament sprain: patients N,6 mg,0
same,"Skeletal injury, Mild: events E",6 mg,0
same,"Skeletal injury, Mild: patients N",6 mg,0
same,"Skeletal injury, Moderate: events E",6 mg,0
same,"Skeletal injury, Moderate: patients N",6 mg,0
same,"Skeletal injury, Severe: events E",6 mg,1
same,"Skeletal injury, Severe: patients %",6 mg,(0.2) %
same,"Skeletal injury, Severe: patients N",6 mg,1
same,Skeletal injury: events E,6 mg,1
same,Skeletal injury: patients %,6 mg,(0.2) %
same,Skeletal injury: patients N,6 mg,1
same,Ileus: events (E),6 mg (N = 469),0
same,Infections and infestations (SOC): events E,6 mg (N = 469),51
same,Infections and infestations (SOC): patients %,6 mg (N = 469),(9.2) %
same,Infections and infestations (SOC): patients N,6 mg (N = 469),43
same,"Influenza like illness, Mild: events (E)",6 mg (N = 469),1
same,"Influenza like illness, Mild: patients (%)",6 mg (N = 469),(0.2) %
same,"Influenza like illness, Moderate: events (E)",6 mg (N = 469),0
same,"Influenza like illness, Severe: events (E)",6 mg (N = 469),0
same,Influenza like illness: events (E),6 mg (N = 469),1
same,Influenza like illness: events E,6 mg (N = 469),1
same,Influenza like illness: patients %,6 mg (N = 469),(0.2) %
same,Influenza like illness: patients (%),6 mg (N = 469),(0.2) %
same,Influenza like illness: patients N,6 mg (N = 469),1
same,Influenza: events E,6 mg (N = 469),7
same,Influenza: patients %,6 mg (N = 469),(1.5) %
same,Influenza: patients N,6 mg (N = 469),7
same,"Injury, poisoning and procedural complications (SOC): events E",6 mg (N = 469),9
same,"Nausea, Mild: events (E)",6 mg (N = 469),3
same,"Nausea, Mild: patients (%)",6 mg (N = 469),(0.6) %
same,"Nausea, Moderate: events (E)",6 mg (N = 469),2
same,"Nausea, Moderate: patients (%)",6 mg (N = 469),(0.4) %
same,"SAE Musculoskeletal and connective tissue disorders, E events",6 mg (N = 469),0
same,"SAE Musculoskeletal and connective tissue disorders, N patients",6 mg (N = 469),0
same,"SAE Musculoskeletal and connective tissue disorders, No Reasonable Possibility, E events",6 mg (N = 469),0
same,"SAE Musculoskeletal and connective tissue disorders, No Reasonable Possibility, N patients",6 mg (N = 469),0
same,"SAE Musculoskeletal and connective tissue disorders, Reasonable Possibility, E events",6 mg (N = 469),0
same,"SAE Musculoskeletal and connective tissue disorders, Reasonable Possibility, N patients",6 mg (N = 469),0
same,"Influenza, Mild: events E",Active Combined,6
same,"Influenza, Mild: patients %",Active Combined,(0.6) %
same,"Influenza, Mild: patients N",Active Combined,6
same,"Influenza, Moderate: events E",Active Combined,3
same,"Influenza, Moderate: patients %",Active Combined,(0.3) %
same,"Influenza, Moderate: patients N",Active Combined,3
same,"Influenza, Severe: events E",Active Combined,0
same,"Influenza, Severe: patients N",Active Combined,0
same,Influenza: events E,Active Combined,9
same,Influenza: patients %,Active Combined,(1.0) %
same,Influenza: patients N,Active Combined,9
same,"Skeletal injury, Mild: events E",Active Combined,0
same,"Skeletal injury, Mild: patients N",Active Combined,0
same,"Skeletal injury, Moderate: events E",Active Combined,0
same,"Skeletal injury, Moderate: patients N",Active Combined,0
same,"Skeletal injury, Severe: events E",Active Combined,1
same,"Skeletal injury, Severe: patients %",Active Combined,(0.1) %
same,"Skeletal injury, Severe: patients N",Active Combined,1
same,Skeletal injury: events E,Active Combined,1
same,Skeletal injury: patients %,Active Combined,(0.1) %
same,Skeletal injury: patients N,Active Combined,1
same,Infections and infestations (SOC): events E,Active Combined (N = 936),89
same,Infections and infestations (SOC): patients %,Active Combined (N = 936),(8.2) %
same,Infections and infestations (SOC): patients N,Active Combined (N = 936),77
same,"Influenza like illness, Mild: events (E)",Active Combined (N = 936),1
same,"Influenza like illness, Mild: patients (%)",Active Combined (N = 936),(0.1) %
same,"Influenza like illness, Moderate: events (E)",Active Combined (N = 936),0
same,"Influenza like illness, Severe: events (E)",Active Combined (N = 936),0
same,Influenza like illness: events (E),Active Combined (N = 936),1
